# In PMC8163098:
# Columns and labels:
# [1] = molecular target: rabbit reticulocyte 60S ribosomal subunit (rabbit (endogenous in reticulocyte lysate)) (UniProt G1SV32); experiment: co-sedimentation
# [2] = molecular target: mouse 80S ribosomes (monosomes) and polysomes (mouse (endogenous in neocortex and Neuro2a)) (UniProt P84099); experiment: cryo-EM structure
Substance,Ebp1 concentration at saturated binding (100 nM 60S) [1],Kd [1],overall occupancy [2],percent of ribosomes with Ebp1 bound [2],"percent of ribosomes with Ebp1 bound, each of the five sub-states [2]"
polyhistidine-tagged full-length recombinant Ebp1 (Ebp1-His) (from UniProt P50580 1-394) (natural protein),200 nM,124 nM,,,
"ErbB3-binding protein 1 (Ebp1), endogenous full-length mouse protein (from UniProt P50580-1 1-394) (natural protein)",,,52%,48%,50%
